The target in this experiment is HSP90–CDC37–BRAF^V600E complex (human) (UniProt P08238). The experiment in a line: cryo-EM structure; HSP90–CDC37–BRAF^V600E complex incubated with PP5 D274N, purified by SEC, cross-linked with 1 mM BS3; one sample gave three classes: HCK (3.4 Å), HCK-P open (4.2 Å), HCK-P closed (3.9 Å); PP5 modelled by rigid-body docking.
Sequence of HSP90–CDC37–BRAF^V600E complex (human) (P08238 whole entry, chain 1 of 3): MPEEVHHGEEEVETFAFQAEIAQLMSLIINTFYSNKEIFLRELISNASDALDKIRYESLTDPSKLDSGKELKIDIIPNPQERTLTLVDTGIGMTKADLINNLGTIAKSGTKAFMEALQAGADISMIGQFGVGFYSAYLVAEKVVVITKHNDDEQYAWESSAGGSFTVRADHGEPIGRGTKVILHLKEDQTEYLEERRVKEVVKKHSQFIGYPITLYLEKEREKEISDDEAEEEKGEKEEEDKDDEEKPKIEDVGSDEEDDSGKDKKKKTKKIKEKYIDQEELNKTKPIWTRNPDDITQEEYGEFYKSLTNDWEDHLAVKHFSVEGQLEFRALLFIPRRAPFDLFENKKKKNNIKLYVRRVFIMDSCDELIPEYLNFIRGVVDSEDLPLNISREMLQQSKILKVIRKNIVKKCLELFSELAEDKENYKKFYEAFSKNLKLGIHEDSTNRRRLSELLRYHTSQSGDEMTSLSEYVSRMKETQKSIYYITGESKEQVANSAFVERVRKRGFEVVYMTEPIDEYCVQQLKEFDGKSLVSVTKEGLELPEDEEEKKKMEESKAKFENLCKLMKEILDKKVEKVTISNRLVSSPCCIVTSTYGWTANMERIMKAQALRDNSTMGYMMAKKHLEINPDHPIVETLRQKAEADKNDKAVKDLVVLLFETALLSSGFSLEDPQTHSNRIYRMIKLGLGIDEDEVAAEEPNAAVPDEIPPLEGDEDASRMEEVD
Sequence of HSP90–CDC37–BRAF^V600E complex (human) (Q16543 whole entry, chain 2 of 3, further chain): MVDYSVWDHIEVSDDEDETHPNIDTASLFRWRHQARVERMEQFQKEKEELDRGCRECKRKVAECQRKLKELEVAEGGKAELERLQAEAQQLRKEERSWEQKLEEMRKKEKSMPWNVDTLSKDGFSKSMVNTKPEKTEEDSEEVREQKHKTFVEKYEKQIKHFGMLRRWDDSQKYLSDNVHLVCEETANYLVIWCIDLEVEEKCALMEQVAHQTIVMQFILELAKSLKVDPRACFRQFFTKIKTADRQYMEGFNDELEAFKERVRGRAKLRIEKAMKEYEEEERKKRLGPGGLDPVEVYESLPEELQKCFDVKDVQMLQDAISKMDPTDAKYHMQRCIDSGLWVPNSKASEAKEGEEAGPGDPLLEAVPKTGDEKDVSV
Sequence of HSP90–CDC37–BRAF^V600E complex (human) (P15056 whole entry V600E, chain 3 of 3, further chain): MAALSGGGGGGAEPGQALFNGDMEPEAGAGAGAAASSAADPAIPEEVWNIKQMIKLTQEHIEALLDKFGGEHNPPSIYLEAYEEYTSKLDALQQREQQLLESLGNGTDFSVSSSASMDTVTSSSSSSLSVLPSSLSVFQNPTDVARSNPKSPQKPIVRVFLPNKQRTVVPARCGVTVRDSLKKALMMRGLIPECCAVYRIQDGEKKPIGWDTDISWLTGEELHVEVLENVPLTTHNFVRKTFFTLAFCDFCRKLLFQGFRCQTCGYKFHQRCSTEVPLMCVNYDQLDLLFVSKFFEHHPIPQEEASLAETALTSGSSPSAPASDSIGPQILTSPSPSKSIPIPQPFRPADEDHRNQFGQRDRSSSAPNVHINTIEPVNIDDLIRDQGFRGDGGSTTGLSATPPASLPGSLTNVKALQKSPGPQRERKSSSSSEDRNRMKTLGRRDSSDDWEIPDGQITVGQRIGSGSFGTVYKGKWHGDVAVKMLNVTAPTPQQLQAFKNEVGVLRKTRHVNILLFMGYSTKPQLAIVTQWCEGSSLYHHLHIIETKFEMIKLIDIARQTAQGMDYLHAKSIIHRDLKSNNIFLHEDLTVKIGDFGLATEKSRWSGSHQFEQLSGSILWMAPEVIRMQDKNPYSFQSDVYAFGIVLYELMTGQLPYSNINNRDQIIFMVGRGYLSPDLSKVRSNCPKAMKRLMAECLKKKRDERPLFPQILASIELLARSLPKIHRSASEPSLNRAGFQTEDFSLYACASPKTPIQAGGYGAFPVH

B1: PP5 D274N (enzyme)
chain: RDEPPADGALKRAEELKTQANDYFKAKDYENAIKFYSQAIELNPSNAIYYGNRSLAYLRTECYGYALGDATRAIELDKKYIKGYYRRAASNMALGKFRAALRDYETVVKVKPHDKDAKMKYQECNKIVKQKAFERAIAGDEHKRSVVDSLDIESMTIEDEYSGPKLEDGKVTISFMKELMQWYKDQKKLHRKCAYQILVQVKEVLSKLSTLVETTLKETEKITVCGDTHGQFYDLLNIFELNGLPSETNPYIFNGDFVNRGSFSVEVILTLFGFKLLYPDHFHLLRGNHETDNMNQIYGFEGEVKAKYTAQMYELFSEVFEWLPLAQCINGKVLIMHGGLFSEDGVTLDDIRKIERNRQPPDSGPMCDLLWSDPQPQNGRSISKRGVSCQFGPDVTKAFLEENNLDYIIRSHEVKAEGYEVAHGGRCVTVFSAPNYCDQMGNKASYIHLQGSDLRPQFHQFTAVPHPNVKPMAYANTLLQLGMM
Take B1: the stoichiometry N (usually a count of units in the complex or per binding partner) was 1.
